B1: S. cerevisiae Abp1 (full length; SH3 domain 535-592 mutated) / Hua2 (parent complex)
chain 1: MALEPIDYTTHSREIDAEYLKIVRGSDPDTTWLIISPNAKKEYEPESTGSSFHDFLQLFDETKVQYGLARVSPPGSDVEKIIIIGWCPDSAPLKTRASFAANFAAVANNLFKGYHVQVTARDEDDLDENELLMKISNAAGARYSIQTSSKQQGKASTPPVKKSFTPSKSPAPVSKKEPVKTPSPAPAAKISSRVNDNNDDDDWNEPELKERDFDQAPLKPNQSSYKPIGKIDLQKVIAEEKAKEDPRLVQKPTAAGSKIDPSSDIANLKNESKLKRDSEFNSFLGTTKPPSMTESSLKNDDDKVIKGFRNEKSPAQLWAERKAKQNSGNAETKAEAPKPEVPEDEPEGEPDVKDLKSKFEGLAASEKEEEEMENKFAPPPKKSEPTIISPKPFSKPQEPVKAEEAEQPKTDYKKIGNPLPGMHIEADNEEEPEENDDDWDDDEDEAAQPPLPSRNVASGAPVQKEEPEQEEIAPSLPSRNSIPAPKQEEAPEQAPEEEIEEEAEEAAPQLPSRSSAAPPPPPRRATPEKKPKENPWATAEYDYDAAEDNELTFVENDKIINIEFVDDDWWLGELEKDGSKGLFPSNYVSLGN
chain 2: MQQTKFGKMYLDHDSVVEYSEDEIVEADRITLGYKKRLSMIENQMRHLLEDFSLDVQQIEPILADLQKYYDAFLQLLQKRNKSLQCKRSTHQPVPSPMNSQTSTNAKVNLSGKLMKFQLNSVQKFDEENILRILQNKIEFEHYFQIDKGKKQKVLLLAVYQCLNGPTRLHKVLNIEGIIHNNSIRTILGKQVSSSKWTVFLYDVKLVLLAHRQDVPNLETSKMIVRYGDLFPCALYFKDHTAY

Variants of: B1
Assay: DHFR protein-fragment complementation in yeast (Abp1-DHFR F[1,2] x partner-DHFR F[3]), deep mutational scanning, second methotrexate selection vs reference; S. cerevisiae, DHFR-PCA selection in liquid with methotrexate at 30 C, two 72 h selections (the score uses the second); reference = the pre-selection culture

screen value | Variant
0.719 DMS score: mean over two replicates of log2(f_test/f_ref + 0.5)/ln 2, minus the synonymous-codon median (not a log2 … | chain 1 MALEPIDYTTHSREIDAEYLKIVRGSDPDTTWLIISPNAKKEYEPESTGSSFHDFLQLFDETKVQYGLARVSPPGSDVEKIIIIGWCPDSAPLKTRASFAANFAAVANNLFKGYHVQVTARDEDDLDENELLMKISNAAGARYSIQTSSKQQGKASTPPVKKSFTPSKSPAPVSKKEPVKTPSPAPAAKISSRVNDNNDDDDWNEPELKERDFDQAPLKPNQSSYKPIGKIDLQKVIAEEKAKEDPRLVQKPTAAGSKIDPSSDIANLKNESKLKRDSEFNSFLGTTKPPSMTESSLKNDDDKVIKGFRNEKSPAQLWAERKAKQNSGNAETKAEAPKPEVPEDEPEGEPDVKDLKSKFEGLAASEKEEEEMENKFAPPPKKSEPTIISPKPFSKPQEPVKAEEAEQPKTDYKKIGNPLPGMHIEADNEEEPEENDDDWDDDEDEAAQPPLPSRNVASGAPVQKEEPEQEEIAPSLPSRNSIPAPKQEEAPEQAPEEEIEEEAEEAAPQLPSRSSAAPPPPPRRATPEKKPKENPWATAEYDYDAAEDNELTFVENDRIINIEFVDDDWWLGELEKDGSKGLFPSNYVSLGN [chain 1 K558R]
-0.817 DMS score: mean over two replicates of log2(f_test/f_ref + 0.5)/ln 2, minus the synonymous-codon median (not a log2 … | chain 1 MALEPIDYTTHSREIDAEYLKIVRGSDPDTTWLIISPNAKKEYEPESTGSSFHDFLQLFDETKVQYGLARVSPPGSDVEKIIIIGWCPDSAPLKTRASFAANFAAVANNLFKGYHVQVTARDEDDLDENELLMKISNAAGARYSIQTSSKQQGKASTPPVKKSFTPSKSPAPVSKKEPVKTPSPAPAAKISSRVNDNNDDDDWNEPELKERDFDQAPLKPNQSSYKPIGKIDLQKVIAEEKAKEDPRLVQKPTAAGSKIDPSSDIANLKNESKLKRDSEFNSFLGTTKPPSMTESSLKNDDDKVIKGFRNEKSPAQLWAERKAKQNSGNAETKAEAPKPEVPEDEPEGEPDVKDLKSKFEGLAASEKEEEEMENKFAPPPKKSEPTIISPKPFSKPQEPVKAEEAEQPKTDYKKIGNPLPGMHIEADNEEEPEENDDDWDDDEDEAAQPPLPSRNVASGAPVQKEEPEQEEIAPSLPSRNSIPAPKQEEAPEQAPEEEIEEEAEEAAPQLPSRSSAAPPPPPRRATPEKKPKENPWATAEYDYDAAEDNELTFVENDAIINIEFVDDDWWLGELEKDGSKGLFPSNYVSLGN [chain 1 K558A]
-0.155 DMS score: mean over two replicates of log2(f_test/f_ref + 0.5)/ln 2, minus the synonymous-codon median (not a log2 … | chain 1 MALEPIDYTTHSREIDAEYLKIVRGSDPDTTWLIISPNAKKEYEPESTGSSFHDFLQLFDETKVQYGLARVSPPGSDVEKIIIIGWCPDSAPLKTRASFAANFAAVANNLFKGYHVQVTARDEDDLDENELLMKISNAAGARYSIQTSSKQQGKASTPPVKKSFTPSKSPAPVSKKEPVKTPSPAPAAKISSRVNDNNDDDDWNEPELKERDFDQAPLKPNQSSYKPIGKIDLQKVIAEEKAKEDPRLVQKPTAAGSKIDPSSDIANLKNESKLKRDSEFNSFLGTTKPPSMTESSLKNDDDKVIKGFRNEKSPAQLWAERKAKQNSGNAETKAEAPKPEVPEDEPEGEPDVKDLKSKFEGLAASEKEEEEMENKFAPPPKKSEPTIISPKPFSKPQEPVKAEEAEQPKTDYKKIGNPLPGMHIEADNEEEPEENDDDWDDDEDEAAQPPLPSRNVASGAPVQKEEPEQEEIAPSLPSRNSIPAPKQEEAPEQAPEEEIEEEAEEAAPQLPSRSSAAPPPPPRRATPEKKPKENPWATAEYDYDAAEDNELTFVENDKVINIEFVDDDWWLGELEKDGSKGLFPSNYVSLGN [chain 1 I559V]
-0.774 DMS score: mean over two replicates of log2(f_test/f_ref + 0.5)/ln 2, minus the synonymous-codon median (not a log2 … | chain 1 MALEPIDYTTHSREIDAEYLKIVRGSDPDTTWLIISPNAKKEYEPESTGSSFHDFLQLFDETKVQYGLARVSPPGSDVEKIIIIGWCPDSAPLKTRASFAANFAAVANNLFKGYHVQVTARDEDDLDENELLMKISNAAGARYSIQTSSKQQGKASTPPVKKSFTPSKSPAPVSKKEPVKTPSPAPAAKISSRVNDNNDDDDWNEPELKERDFDQAPLKPNQSSYKPIGKIDLQKVIAEEKAKEDPRLVQKPTAAGSKIDPSSDIANLKNESKLKRDSEFNSFLGTTKPPSMTESSLKNDDDKVIKGFRNEKSPAQLWAERKAKQNSGNAETKAEAPKPEVPEDEPEGEPDVKDLKSKFEGLAASEKEEEEMENKFAPPPKKSEPTIISPKPFSKPQEPVKAEEAEQPKTDYKKIGNPLPGMHIEADNEEEPEENDDDWDDDEDEAAQPPLPSRNVASGAPVQKEEPEQEEIAPSLPSRNSIPAPKQEEAPEQAPEEEIEEEAEEAAPQLPSRSSAAPPPPPRRATPEKKPKENPWATAEYDYDAAEDPELTFVENDKIINIEFVDDDWWLGELEKDGSKGLFPSNYVSLGN [chain 1 N549P]
-1.55 DMS score: mean over two replicates of log2(f_test/f_ref + 0.5)/ln 2, minus the synonymous-codon median (not a log2 … | chain 1 MALEPIDYTTHSREIDAEYLKIVRGSDPDTTWLIISPNAKKEYEPESTGSSFHDFLQLFDETKVQYGLARVSPPGSDVEKIIIIGWCPDSAPLKTRASFAANFAAVANNLFKGYHVQVTARDEDDLDENELLMKISNAAGARYSIQTSSKQQGKASTPPVKKSFTPSKSPAPVSKKEPVKTPSPAPAAKISSRVNDNNDDDDWNEPELKERDFDQAPLKPNQSSYKPIGKIDLQKVIAEEKAKEDPRLVQKPTAAGSKIDPSSDIANLKNESKLKRDSEFNSFLGTTKPPSMTESSLKNDDDKVIKGFRNEKSPAQLWAERKAKQNSGNAETKAEAPKPEVPEDEPEGEPDVKDLKSKFEGLAASEKEEEEMENKFAPPPKKSEPTIISPKPFSKPQEPVKAEEAEQPKTDYKKIGNPLPGMHIEADNEEEPEENDDDWDDDEDEAAQPPLPSRNVASGAPVQKEEPEQEEIAPSLPSRNSIPAPKQEEAPEQAPEEEIEEEAEEAAPQLPSRSSAAPPPPPRRATPEKKPKENPWATAEYDYDAAEDNELTFVENDKIINIEFVDDDWWLGELEKDGSKGLFPSHYVSLGN [chain 1 N586H]

Source: PMC7954794 (2021)
